Reference: PMC9746966, “Structural basis for matriglycan synthesis by the LARGE1 dual glycosyltransferase” (PLOS ONE, 2022)

B1: LARGE1^ΔCC (soluble secreted ectodomain of human LARGE1 without its coiled-coil domain, residues 92-756) (domain or fragment, UniProt O95461 92-756, looked up)
chain: SHRRGNHSKTYSMEEGTGDSENLRAGIVAGNSSECGQQPVVEKCETIHVAIVCAGYNASRDVVTLVKSVLFHRRNPLHFHLIADSIAEQILATLFQTWMVPAVRVDFYNADELKSEVSWIPNKHYSGIYGLMKLVLTKTLPANLERVIVLDTDITFATDIAELWAVFHKFKGQQVLGLVENQSDWYLGNLWKNHRPWPALGRGYNTGVILLLLDKLRKMKWEQMWRLTAERELMGMLSTSLADQDIFNAVIKQNPFLVYQLPCFWNVQLSDHTRSEQCYRDVSDLKVIHWNSPKKLRVKNKHVEFFRNLYLTFLEYDGNLLRRELFGCPSEADVNSENLQKQLSELDEDDLCYEFRRERFTVHRTHLYFLHYEYEPAADSTDVTLVAQLSMDRLQMLEAICKHWEGPISLALYLSDAEAQQFLRYAQGSEVLMSRHNVGYHIVYKEGQFYPVNLLRNVAMKHISTPYMFLSDIDFLPMYGLYEYLRKSVIQLDLANTKKAMIVPAFETLRYRLSFPKSKAELLSMLDMGTLFTFRYHVWTKGHAPTNFAKWRTATTPYRVEWEADFEPYVVVRRDCPEYDRRFVGFGWNKVAHIMELDVQEYEFIVLPNAYMIHMPHAPSFDITKFRSNKQYRICLKTLKEEFQQDMSRRYGFAALKYLTAENNS
notes: residues 134 to 752 are modelled in the crystal structure; Cloned into a modified pHLsec plasmid; also called LARGE1 without CC; LARGE1- CC
B2: LARGE1^ecto (soluble secreted ectodomain of human LARGE1 with its coiled-coil domain, residues 29-756) (domain or fragment, UniProt O95461 29-756, looked up)
chain: LFSGSFEDGKPVSLSPLESQAHSPRYTASSQRERESLEVRMREVEEENRALRRQLSLAQGRAPSHRRGNHSKTYSMEEGTGDSENLRAGIVAGNSSECGQQPVVEKCETIHVAIVCAGYNASRDVVTLVKSVLFHRRNPLHFHLIADSIAEQILATLFQTWMVPAVRVDFYNADELKSEVSWIPNKHYSGIYGLMKLVLTKTLPANLERVIVLDTDITFATDIAELWAVFHKFKGQQVLGLVENQSDWYLGNLWKNHRPWPALGRGYNTGVILLLLDKLRKMKWEQMWRLTAERELMGMLSTSLADQDIFNAVIKQNPFLVYQLPCFWNVQLSDHTRSEQCYRDVSDLKVIHWNSPKKLRVKNKHVEFFRNLYLTFLEYDGNLLRRELFGCPSEADVNSENLQKQLSELDEDDLCYEFRRERFTVHRTHLYFLHYEYEPAADSTDVTLVAQLSMDRLQMLEAICKHWEGPISLALYLSDAEAQQFLRYAQGSEVLMSRHNVGYHIVYKEGQFYPVNLLRNVAMKHISTPYMFLSDIDFLPMYGLYEYLRKSVIQLDLANTKKAMIVPAFETLRYRLSFPKSKAELLSMLDMGTLFTFRYHVWTKGHAPTNFAKWRTATTPYRVEWEADFEPYVVVRRDCPEYDRRFVGFGWNKVAHIMELDVQEYEFIVLPNAYMIHMPHAPSFDITKFRSNKQYRICLKTLKEEFQQDMSRRYGFAALKYLTAENNS
notes: Cloned into a modified pHLsec plasmid (BglII/NotI); also called Like-acetylglucosaminyltransferase 1; LARGE1-His WT

Biological target: the molecule itself
Experiment: mass photometry; Refeyn One MP; LARGE1 samples diluted in TBS to approximately 30 nM (2.5 ug/ml), room temperature, 60 second recordings; monomer to dimer

Protein	stoichiometry N
B1	2
B2	2
